Test results from patent publication US7011975 (UNIVERSITY OF GEORGIA RESEARCH FOUNDATION, dated 2006).

Target: Cry1Ac toxin (Bacillus thuringiensis, UniProt P05068 29-623, rhodamine label (5(6)-TAMRA SE) in the cell-staining assay; coupled to CNBr-activated Sepharose 4B in the affinity assay)
Assay: rhodamine-labeled toxin staining of fixed Sf21 cells, confocal microscopy

B1: Manduca sexta 120 kDa aminopeptidase N APN1a expressed in Sf21 cells transfected with pHSP120 (receptor)
chain: PSYRLPTTTRPRHYAVTLTPYFDVVPAGVSSLTTFSFDGEVTIYISPTQANVNEIVLHCNDLTIQSLRVTYVSGNSEVDITATGQTFTCEMPYSFLRIRTSTPLVMNQEYIIRSTFRGNLQTNMRGFYRSWYVDRTGKRWMATTQLQPGHARQAFPCYDEPGFKATFDITMNREADFSPTISNMPIRATTTLTNGRISETFFTTPLTSTYLLAFIVSHYQVISNNNNAARPFRIYARNNVGSQGDWSLEMGEKLLLAMENYTAIPYYTMAQNIDMKQAAIPDFSAGAMENWGLLTYREALILYDPLNSNHHYRQRVANIVSHEIAHMWFGNLVTCAWWDNLWLNEGFARFYQYYLTATVDPELGYEIRFIPEQLQVAMFSDSVDSAHALTDTSVNDPVAVSAHFSTITYARGAAILRMTQHLLSYDTFVKGLRQYLRARQFDVAEPYHLFSALDAAAAEDNALAAYTGITIDAYFRTWSEKAGHPLLSVTVDHETGRMTLVQARWERNTGVSRFPGLWHIPITWTRAGAPDFENLKPSQVMTGQSLVIDRGTRGQEWVIFNKQVSGFYRVNYDNTTWGLITRALRSANRTVIHELSRSQIVDDVFQLARSGVMSYQRALNILSYLRFEDAYAPWLSAISGFNWVIRRFAHDAANLQTLQNQIIGLSEAVVARLGFTEVSGGTYMTDLQRLHVMQFLCNVGHQQCIDTGRQNFLNWRNGSFIPANMRPWVYCTGLRYGSAEDFNYFWNRYIVEDLSNEKVVMLEAAGCTRDQASLEKFLNAIVSGNDDVRPQDHSSALSSAITSNDVNTMRAFDWLTKNVDQITRTLGSITSPLNTITSRLLTEAQMTQVQTWLDANRNTIGAAYNTGVNGIATSRANLQWSANRMSEFLRFFETGFVDDVPSEATTVAPPAETTVTPSTFPPTEAPATTPAPG
modifications: GPI anchor at the C-terminus; heterogeneously glycosylated (residues not stated)
notes: also called expressed APN; expressed 120 kDa APN
- binding result: no binding (tested: 1 µg/ml)
